According to FireProtDB (doi:10.1002/prot.340220405):

B1: Chemotaxis protein CheY, P0AE67 (parent)
chain: MADKELKFLVVDDFSTMRRIVRNLLKELGFNNVEEAEDGVDALNKLQAGGYGFVISDWNMPNMDGLELLKTIRADGAMSALPVLMVTAEAKKENIIAAAQAGASGYVVKPFTAATLEEKLNKIFEKLGM

Variants of: B1
Details: Escherichia coli (strain K12); pH 8; 25 °C; Urea; CD; Na-PIPES 50 mM; reversible: yes; structure 1CEY; whole UniProt chain shown

Variant	ddG of mutation (higher = less stable) [kcal/mol]	denaturant m value [kcal/mol/M]	denaturant midpoint (higher = more stable) [M]	unfolding free energy [kcal/mol]
F14N	-2.9	1.8	4.72	8.5
A36G F14N	0.2	1.6	3.41	5.4
D38A F14N	-1	1.87	3.58	6.6
D38G F14N	-1.9	1.81	4.14	7.5
A42G F14N	-0.6	1.73	3.58	6.2
D64A F14N	-1.7	1.69	4.32	7.3
D64G F14N	-2.6	1.72	4.77	8.2
A74G	0.3	1.6	3.32	5.3
G76A F14N	-3.4	1.77	5.08	9
A77G	0.3	1.56	3.32	5.3
A80G	-0.6	1.68	3.65	6.2
A88G	-0.1	1.64	3.48	5.7
K91A F14N	-3.3	1.86	4.8	8.9
A97G F14N	-1.5	1.77	4	7.1
A98G F14N	-1.6	1.76	4.09	7.2
A99G	0.5	1.58	3.23	5.1
A103G F14N	-1.2	1.75	3.89	6.8
T112A F14N	-1.4	1.68	4.12	7
T112G F14N	-1.9	1.68	4.46	7.5
A114G	0.5	1.6	3.2	5.1
